For one series, the system named is HP1α (untagged, wt). The series is described as follows: EMSA. Particulars: 20 mM HEPES pH 7.5, 70 mM KCl, 1 mM DTT. In general terms: In EMSA bound probe runs differently from free probe, usually more slowly.
For the next series, the system named is HP1α-16aa-mEGFP. The series is described as follows: EMSA. The following applies: 20 mM HEPES pH 7.5, 70 mM KCl, 1 mM DTT.

The record followed here is publication doi:10.1101/2023.12.04.569983.

With 187 bp DNA, the K half is 880 nM in the series with HP1α (untagged, wt) and 580 nM in the series with HP1α-16aa-mEGFP.
